T1: Flag tagged recombinant DLL3 (Adipogen) (Homo sapiens (Human), UniProt Q9NYJ7 27-492)
T1 construct: Bought reagent; also called Flag-DLL3
T1 sequence: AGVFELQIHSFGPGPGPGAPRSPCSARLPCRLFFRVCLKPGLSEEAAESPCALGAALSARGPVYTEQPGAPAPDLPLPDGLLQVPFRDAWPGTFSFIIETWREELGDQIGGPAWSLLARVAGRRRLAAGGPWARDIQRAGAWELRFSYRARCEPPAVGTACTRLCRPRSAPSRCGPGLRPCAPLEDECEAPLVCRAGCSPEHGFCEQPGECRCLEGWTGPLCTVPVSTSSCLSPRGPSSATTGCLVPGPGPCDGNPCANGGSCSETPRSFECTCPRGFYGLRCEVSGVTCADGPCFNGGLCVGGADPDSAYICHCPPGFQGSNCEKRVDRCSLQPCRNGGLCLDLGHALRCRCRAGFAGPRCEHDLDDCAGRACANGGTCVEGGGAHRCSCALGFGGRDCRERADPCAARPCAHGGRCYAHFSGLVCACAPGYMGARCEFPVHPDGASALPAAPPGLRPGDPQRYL


Key:
[1] = target: T1, Flag tagged recombinant DLL3 (Adipogen); assay: flow cytometry, percent of T cells that recognise recombinant DLL3, Donor 419
Protocol: (§1) To determine the percentage of T cells that were successfully transduced with DLL3 CAR, T cells were first incubated with 1 ug/ml Flag tagged recombinant DLL3 (Adipogen) in PBS+1% BSA for 20 minutes at 4 C.

[2] = target: T1, Flag tagged recombinant DLL3 (Adipogen); assay: flow cytometry, percent of T cells that recognise recombinant DLL3, Donor 116
Protocol: as §1

[3] = target: T1, Flag tagged recombinant DLL3 (Adipogen); assay: flow cytometry, percent of T cells that recognise recombinant DLL3, Donor 117
Protocol: as §1

[4] = target: T1, Flag tagged recombinant DLL3 (Adipogen); assay: flow cytometry, primary T cells with the CAR, 1 ug/ml Flag tagged recombinant DLL3, PE anti-Flag
Protocol: as §1

| Binder | Transduction efficiency [1] | Transduction efficiency [2] | Transduction efficiency [3] | Rec-DLL3 gate, percent of live CD3+ cells [4] |
| --- | --- | --- | --- | --- |
| 6H1 (other, also called anti-DLL3 CAR with 6H1 scFv, on primary T cells) CAR: QITLRESGPTLVKPTQTLTLTCTFSGFSLSTSGLGVGWIRQPPGEALEWLALIYWNDDKRYSPSLKSRLSITKDTSKNQVVLIMTNMDPVDTATYYCVHRRIAAPGSVYWGQGTLVTVSSGGGGSGGGGSGGGGSGGGGSDIQMTQSPSSVSASVGDRVTITCRASQGISSWLAWYQQKPGKAPKLLISAASSLQSGVPSRFSGSGSGTDFTLTISSLQPEDFATYYCHQANSFPFTFGQGTKLEIKTTTPAPRPPTPAPTIASQPLSLRPEACRPAAGGAVHTRGLDFACDIYIWAPLAGTCGVLLLSLVITKRGRKKLLYIFKQPFMRPVQTTQEEDGCSCRFPEEEEGGCELRVKFSRSADAPAYQQGQNQLYNELNLGRREEYDVLDKRRGRDPEMGGKPRRKNPQEGLYNELQKDKMAEAYSEIGMKGERRRGKGHDGLYQGLSTATKDTYDALHMQALPPR | 2.7% | 5.81% | – | – |
| 7F9 (other, also called anti-DLL3 CAR with 7F9 scFv, on primary T cells) CAR: EVQLVESGGGLVQPGGSLRLSCAASGFTFSSHDMHWVRQATGKGLEWVSAIGIAGDTYYSGSVKGRFTISRENAKNSLYLQMNSLRAGDTAVYYCARANWGEGAFDIWGQGTMVTVSSGGGGSGGGGSGGGGSGGGGSDIQMTQSPSSLSASVGDRVTITCRASQGISDYLAWYQQKPGKIPKLLIYAASTLQSGVPSRFSGSGSGTDFTLTISSLQPEDVATYYCQKYNSVPLTFGGGTKVEIKTTTPAPRPPTPAPTIASQPLSLRPEACRPAAGGAVHTRGLDFACDIYIWAPLAGTCGVLLLSLVITKRGRKKLLYIFKQPFMRPVQTTQEEDGCSCRFPEEEEGGCELRVKFSRSADAPAYQQGQNQLYNELNLGRREEYDVLDKRRGRDPEMGGKPRRKNPQEGLYNELQKDKMAEAYSEIGMKGERRRGKGHDGLYQGLSTATKDTYDALHMQALPPR | – | 42.2% | 37.4% | 42.2% |
| 2G1 (other, also called anti-DLL3 CAR with 2G1 scFv, on primary T cells) CAR: QLQLQESGPGLVKPSETLSLTCTVSGGSISSSSYYWGWIRQPPGKGLEWIGSIYYSGNIYHNPSLKSRVSISVDTSKNQFSLRLSSVTAADTAVYYCAREIIVGATHFDYWGQGTLVTVSSGGGGSGGGGSGGGGSGGGGSAIQMTQSPSSLSASVGDRVTITCRASQGIRNDLGWYQQKPGKAPELLIYAASSLQSGVPSRFSGSGSGTDFTLTISSLQPEDFATYYCLQDYNYPLTFGPGTKVDIKTTTPAPRPPTPAPTIASQPLSLRPEACRPAAGGAVHTRGLDFACDIYIWAPLAGTCGVLLLSLVITKRGRKKLLYIFKQPFMRPVQTTQEEDGCSCRFPEEEEGGCELRVKFSRSADAPAYQQGQNQLYNELNLGRREEYDVLDKRRGRDPEMGGKPRRKNPQEGLYNELQKDKMAEAYSEIGMKGERRRGKGHDGLYQGLSTATKDTYDALHMQALPPR | 49.1% | 66.9% | – | 69.1% |
| 4F9 (other, also called anti-DLL3 CAR with 4F9 scFv, on primary T cells) CAR: QVQLQQWGAGLLKPSETLSLTCAVYGGSFSGYYWTWIRQPPGKGLEWIGEITHSGSTNYNPSLKSRVSISVDTSKNQFSLKLSSVTAADTAVYYCARGEYGSGSRFDYWGQGTLVTVSSGGGGSGGGGSGGGGSGGGGSAIQMTQSPSSLSASVGDRVAITCRASQGIRDDLGWYQQKPGKAPKLLIYAASSLQSGVPSRFSGSGSDTDFTLTISSLQPEDFATYYCLQDYDYPLTFGGGTKVEIKTTTPAPRPPTPAPTIASQPLSLRPEACRPAAGGAVHTRGLDFACDIYIWAPLAGTCGVLLLSLVITKRGRKKLLYIFKQPFMRPVQTTQEEDGCSCRFPEEEEGGCELRVKFSRSADAPAYQQGQNQLYNELNLGRREEYDVLDKRRGRDPEMGGKPRRKNPQEGLYNELQKDKMAEAYSEIGMKGERRRGKGHDGLYQGLSTATKDTYDALHMQALPPR | 49.4% | 67.5% | – | – |
| 4G9 (other, also called anti-DLL3 CAR with 4G9 scFv, on primary T cells) CAR: QVQLQQWGAGLLKPSETLSLTCAVYGGSFSGYYWSWIRQPPGKGLEWIGEITHSGSTNYNPSLKSRVSISVDTSKNQFSLKLSSVTAADTAVYYCARGEYGSGSRFDYWGQGTLVTVSSGGGGSGGGGSGGGGSGGGGSAIQMTQSPSSLSASVGDRVALTCRASQGIRDDLGWYQQKPGKAPKLLIYAASSLQSGVPSRFSGSGSDTDFTLTISSLQPEDFATYYCLQDYDYPLTFGGGTKVEIKTTTPAPRPPTPAPTIASQPLSLRPEACRPAAGGAVHTRGLDFACDIYIWAPLAGTCGVLLLSLVITKRGRKKLLYIFKQPFMRPVQTTQEEDGCSCRFPEEEEGGCELRVKFSRSADAPAYQQGQNQLYNELNLGRREEYDVLDKRRGRDPEMGGKPRRKNPQEGLYNELQKDKMAEAYSEIGMKGERRRGKGHDGLYQGLSTATKDTYDALHMQALPPR | 35.2% | 48.9% | – | – |
| 3E4 (other, also called anti-DLL3 CAR with 3E4 scFv, on primary T cells) CAR: QVQLQQWGAGLLKPSETLSLTCAVYGGSFSGYYWSWIRQPPGKGLEWIGEIIHSGSSNYNPSLKSRVSISVDTSKNQFSLKLSSVTAADTAVYYCSRGEYGSGSRFDYWGQGTLVTVSSGGGGSGGGGSGGGGSGGGGSAIQMTQSPSSLSASVGDRVAITCRASQGIRDDLGWYQQKPGKAPKLLIYAASSLQSGVPSRFSGSRSDTDFTLTISSLQPEDFATYYCLQDYDYPLTFGGGTKVEIKTTTPAPRPPTPAPTIASQPLSLRPEACRPAAGGAVHTRGLDFACDIYIWAPLAGTCGVLLLSLVITKRGRKKLLYIFKQPFMRPVQTTQEEDGCSCRFPEEEEGGCELRVKFSRSADAPAYQQGQNQLYNELNLGRREEYDVLDKRRGRDPEMGGKPRRKNPQEGLYNELQKDKMAEAYSEIGMKGERRRGKGHDGLYQGLSTATKDTYDALHMQALPPR | 46.4% | 58.3% | – | – |

Other lines, results leading:

| Transduction efficiency [1] | Transduction efficiency [2] | Transduction efficiency [3] | Rec-DLL3 gate, percent of live CD3+ cells [4] | Binder |
| --- | --- | --- | --- | --- |
| – | 52.4% | 50.8% | 52.4% | 9D3 (other, also called anti-DLL3 CAR with 9D3 scFv, on primary T cells) CAR: QVQLQESGPGLVKPSETLSLTCTVSDDSISNYYWSWIRQPPGKGLEWIGYIFYSGTTNHNPSLKSRLTISLDKAKNQFSLRLSSVTAADTAVYYCARVFNWGFAFDIWGQGTMVTVSSGGGGSGGGGSGGGGSGGGGSEIVLTQSPGTLSLSPGERATLSCRASQRISRTYLAWYQQKPGQAPRLLIYGASSRATGIPDRFTGSGSGTDFTLTISRLEPEDFAVYYCQQYGTSPLTFGGGTKVEINTTTPAPRPPTPAPTIASQPLSLRPEACRPAAGGAVHTRGLDFACDIYIWAPLAGTCGVLLLSLVITKRGRKKLLYIFKQPFMRPVQTTQEEDGCSCRFPEEEEGGCELRVKFSRSADAPAYQQGQNQLYNELNLGRREEYDVLDKRRGRDPEMGGKPRRKNPQEGLYNELQKDKMAEAYSEIGMKGERRRGKGHDGLYQGLSTATKDTYDALHMQALPPR |
| – | 48.9% | 46.9% | 48.9% | 26C8 (other, also called anti-DLL3 CAR with 26C8 scFv, on primary T cells) CAR: QVQLQESGPGLVKPSETLSLTCTVSDNSISNYYWSWIRQPPGKGLEWIAYIYYSGTTNYNPSLKSRVTISLDTSKNQFSLQLSSVTAADAAVYYCARVFHWGFAFDIWGQGTMVTVSSGGGGSGGGGSGGGGSGGGGSEIVLTQSPGTLSLSPGERATLSCRASQRVSNTYLAWYQQNPGQAPRLLIYGASSRATGIPDRFSGSGSGTDFTLTISRLEPEDFAVYYCQQYGTSPLTFGGGTKVEIKTTTPAPRPPTPAPTIASQPLSLRPEACRPAAGGAVHTRGLDFACDIYIWAPLAGTCGVLLLSLVITKRGRKKLLYIFKQPFMRPVQTTQEEDGCSCRFPEEEEGGCELRVKFSRSADAPAYQQGQNQLYNELNLGRREEYDVLDKRRGRDPEMGGKPRRKNPQEGLYNELQKDKMAEAYSEIGMKGERRRGKGHDGLYQGLSTATKDTYDALHMQALPPR |
| 40.2% | 52.4% | – | – | 11H7 (other, also called anti-DLL3 CAR with 11H7 scFv, on primary T cells) CAR: QVQLQQWGAGLLKPSETLSLTCAVYGGSFSAYYWNWIRQPPGKGLEWIGEINHSGSTNYNPSLKSRVTISVDTSKNQFSLNLTSLTAADTAVYYCARGLDSSGWYPFDYWGQGTLVTVSSGGGGSGGGGSGGGGSGGGGSDIQMTQSPSSVSASVGDRVTITCRASQGISSWLAWYQQKPGKAPKLLIYAASSLQSGVPSRFSGSGSGTDFTLTISSLQPEDFATYYCQQADSFPFTFGPGTKVDIKTTTPAPRPPTPAPTIASQPLSLRPEACRPAAGGAVHTRGLDFACDIYIWAPLAGTCGVLLLSLVITKRGRKKLLYIFKQPFMRPVQTTQEEDGCSCRFPEEEEGGCELRVKFSRSADAPAYQQGQNQLYNELNLGRREEYDVLDKRRGRDPEMGGKPRRKNPQEGLYNELQKDKMAEAYSEIGMKGERRRGKGHDGLYQGLSTATKDTYDALHMQALPPR |
| – | 39.1% | 41.4% | 39.1% | 8E11 (other, also called anti-DLL3 CAR with 8E11 scFv, on primary T cells) CAR: QVQLQESGPGLVKPSETLSLTCTVSGDSISNYYWTWIRQPPGKGLEWIGYIYYSGTTNSNPSLKSRVTVSLDTSKSQFSLNLSSVTAADTAVYYCARVFNRGFAFDIWGQGTMVTVSSGGGGSGGGGSGGGGSGGGGSEIVLTQSPGTLSLSPGERATLSCRASQRISNTYLAWYQQKPGQAPRLLIYGASSRATGIPDRFSGSGSGTDFTLTISRLEPEDFAAYYCQQYDTSPLTFGGGTKVEIKTTTPAPRPPTPAPTIASQPLSLRPEACRPAAGGAVHTRGLDFACDIYIWAPLAGTCGVLLLSLVITKRGRKKLLYIFKQPFMRPVQTTQEEDGCSCRFPEEEEGGCELRVKFSRSADAPAYQQGQNQLYNELNLGRREEYDVLDKRRGRDPEMGGKPRRKNPQEGLYNELQKDKMAEAYSEIGMKGERRRGKGHDGLYQGLSTATKDTYDALHMQALPPR |

Reference: patent publication US20230287120A1 (ALLOGENE THERAPEUTICS, published 2023)
